assay: soluble on expression in E. coli; label from the status in PepcDB or PDB records

Sequence | soluble on expression in E. coli
MSQPIQFESNIALINYPKQAAFGRTLPKNKIYEHSGANTRLKDLFIEQVELIVWRYKLAPETINLPARPGVPELQIFSIQLKTSELNLDVLHCIDGAVQFPIIFELSFDGRTKVIAAYKRPNESDASRWVLSSYFATAWLPSDSERAAIPLALDLGGLYEQVLHRLIPMPARPQESLADLVARVEMVAAKQREVEKAASRLAKEKQFNRKVEINAQLRQLKNELEELTGRENA | not soluble
MSLAQINVAILGAGRIAQSMAETLVKMAADDRYRDLVAPYAVAARDGERAAAFAAKYGFPVSYGSYEELVADPNVNLVYIATPHNFHAEQAILCMRAGKGVLVEKAFGANTQQAREILDVSDETGMLCTEAIWTRYMPSRGMIDDIIASGVIGEVQAIDANLCYPTTAKARITDPALAGGALLDVGVYPINFIDMIMHNAPIARVESSMQPYETGVDAHNSMTFYYQNGVMATAQSSILCHSDRMGAVWGTEGYLTCQNINNVEAIDMFDGSHAVTAHYDVPEQLTGYEYEVASTAQAMLDGRTECDEMPHSDTLRIMECMDSLRADWGLKYPFEAEGHHHHHH | soluble
GAMAQVPTDPGYFSVLLDVKHFSPEEISVKVVGDHVEVHARHEERPDEHGFIAREFHRRYRLPPGVDPAAVTSALSPEGVLSIQATPASAQASLPSPPAAK | soluble
MGSSHHHHHHSSGLVPRGSHMISNKLANIPDSYFGKTMGRKIEHGPLPLINMAVGIPDGPTPQGIIDHFQKALTIPENQKYGAFHGKEAFKQAIVDFYQRQYNVTLDKEDEVCILYGTKNGLVAVPTCVINPGDYVLLPDPGYTDYLAGVLLADGKPVPLNLEPPHYLPDWSKVDSQIIDKTKLIYLTYPNNPTGSTATKEVFDEAIAKFKGTDTKIVHDFAYGAFGFDAKNPSILASENGKDVAIEIYSLSKGYNMSGFRVGFAVGNKDMIQALKKYQTHTNAGMFGALQDAAIYALNHYDDFLEEQSNVFKTRRDRFEAMLAKADLPFVHAKGGIYVWLETPPGYDSEQFEQFLVQEKSILVAPGKPFGENGNRYVRISLALDDQKLDEAAIRLTELAYLYE | soluble
SLSANLVGITGIARRLVQDGSIEEATARTAQNQAMAAKVPLPQWLIDKKLVSAAKLAAANALEFGMPLLDVSAFDHNHNAMNLVDEELLQKHRVLPLFKRGNRLFVGISNPTQTQALDDIKFHTNLVVEPILVDEDQIRRTLEQWQSRKG | soluble
MQAFEPYIALNSHVRKPVIHISLNPSPKDILSKEQMTVLAQEFMEKFGYGNQPYIVWLHEDIDRKHMHIISVRINEKGEKIDHNREAIRAQNICRDMEVKYGLHSTLGEHSERELLSLQKVDYPKGDVKAQVKHTARTLLECYNCHSLAEYNTLLNLYNVTVYEVRGSVDGKEYYGIMYGALDDDGQQAGTPFKSSKFGKVFGYEALQKKFAATAEKVKRNSLAERARQEIVKAMQDISTKEAFARRLKDADIEVVYRINPEGRLYGITFIDHTNRTVFNGSRLGKAFSANVFNELFNNPDADRTKLIPPPEQDTPRQARETDAEERQEREEYRQQENRGNYQSEPSGSLIDTSALGAIDIFSVLMEDDHTHEYIDPAFRFGHKKKKKRRRRLLEHHHHHH | soluble
MTAGFNFNNYAAGFCSATPALRGNEVNMDTLNLGNNESLVCGVFPNQDGTFTAMTYTKSKTFKTEAGARRWLARNTD | soluble
SRENLGRIQFSVGYNFQESTLTVKIMKAQELPAKDFSGTSDPFVKIYLLPDKKHKLETKVKRKNLNPHWNETFLFEGFPYEKVVQRILYLQVLDYDRFSRNDPIGEVSIPLNKVDLTQMQTFWKDLKP | soluble
MGSDKIHHHHHHMPSKISQLVTGQKIEVQLSSSNVPARFYSEFIGAVNERWVIVNMPDARKYNDMRDLLQEKTPVIVRFVLENESGEICAFRSEISYVISHPTKMLFIMWPNQIEHRIIRKGRRFDAFLPASVSGQSVKGEENTFRGHVLDVSESGCRLKHEKPEGKIDELWENGSKIVLKIEQKNNGDLTLKAIVRQVKQVDDQLELGVQFMGNQKDEVNSLFSGSLVDIDELSRLESST | not soluble
MGSDKIHHHHHHMVEAQRVKEDEDAIRQALASLKNATGIPVTMYASVQSDSRLLINQWVGLRTPALQNLIIDNGVGVGGRVLKTRRPVGVSDYTRANVISHDLDPVIQDEGLHSIVAVPVIVQREVRGVLYVGVHSPVRLGDKVIEEVTMTARVLEQELAINSASRRSDNPRGGVAKQGRMMNGAEWEQIRSTHSKLRMLANRIEQEELRQELEELCDQMVAPVHVKQTTKLSARELDVLSCVALGHTNVEAAEEMGIGAETVKSYLRSVMRKLGAHTRYEAVNAARRIGALP | not soluble
MSLQPILQLLEKDEQREALHYFIEKLPQLKEATESMEEKITFIQHVMNDKQTLESLFAEWEAKAAPFRLTSEHFEAIATLIQLLPTLVQWLQKAEEFVSFVTSVMNDRESMAYLTKGIKDIVPIGKGLDILKETNERFACERDSTTVSLLRIYRLLKHPIVQDGVKYIETLLDVASKHK | not soluble
MAGDPMSIPFFSFSWAVMSNLTYLQGYPEQLLSQVRTLINEQRLGDVLAKRYPGTHDYATDKALWQYTQDLKNQFLRNAPPINKVMYDNKIHVLKNALGLHTAVSRVQGSKLKAKAEIRVATVFRNAPEPFLRMIVVHELAHLKEKEHNKAFYQLCCHMEPQYHQLEFDTRLWLTQLSLGQDKILEHHHHHH | not soluble
TAILVTTRDGTRTEIQAEPGLSLMEALRDAGIDELLALCGGCCSCATCHVLVAPAFADRLPALSGDENDLLDSSDHRTPHSRLSCQITINDKLEGLEVEIAPED | soluble
MGSDKIHHHHHHMTDTISYQYAAPSVLQRSSDQDELFLAKYSEIEKKEAPCFFWGKLTQPYMTARCLIALSNVVQSSFNLTPAQLSMLKDPIVTAGNERLRFEGFSNCAGVYARVDVLPDGHDGEFLENGTTNVDFNAGMISALGSISKQEKVVMSVGPKEVGLYNKGEKVIERKVPLPVKWIKGLTTVQIYQSVAERMYSFNRIQTLQLFQTLPKGTVKCDYYLVMRGQKPAFSPVKSLNAVCIGGVHRLRLLEPLLPFADELRVFVHPTMQSTIWQLYFGPVRFSLSLSRECWRGFSGEGAALDALLEDVPEKWIAAMDKYSYANQQFNPTLFAIEEHIDLDKVDSLSARLAAMGLLGFDLDDNSFFYRRLPFKTERILSLNPRMIAAEKLLEEEKVEIISNDGNRTEARVAGSGGVRHTVILDRESEKERCTCTWFSGNQGERGACKHILAVKKRVQWKN | not soluble
AHHHHHHGSGSSRTFRTSWADLGNLAKSIPPHHHLNPFEGKWNKKLSKKAIIMWQINVNDNRKFLSDC | not soluble
MEKQWWKESVVYQIYPRSFMDSNGDGIGDLRGIISKLDYLKELGIDVIWLSPVYESPNDDNGYDISDYCKIMNEFGTMEDWDELLHEMHERNMKLMMDLVVNHTSDEHNWFIESRKSKDNKYRDYYIWRPGKEGKEPNNWGAAFSGSAWQYDEMTDEYYLHLFSKKQPDLNWDNEKVRQDVYEMMKFWLEKGIDGFRMDVINFISKEEGLPTVETEEEGYVSGHKHFMNGPNIHKYLHEMNEEVLSHYDIMTVGEMPGVTTEEAKLYTGEERKELQMVFQFEHMDLDSGEGGKWDVKPCSLLTLKENLTKWQKALEHTGWNSLYWNNHDQPRVVSRFGNDGMYRIESAKMLATVLHMMKGTPYIYQGEEIGMTNVRFESIDEYRDIETLNMYKEKVMERGEDIEKVMQSIYIKGRDNARTPMQWDDQNHAGFTTGEPWITVNPNYKEINVKQAIQNKDSIFYYYKKLIELRKNNEIVVYGSYDLILENNPSIFAYVRTYGVEKLLVIANFTAEECIFELPEDISYSEVELLIHNYDVENGPIENITLRPYEAMVFKLK | soluble
MEGVELKEEWQDEDFPIPLPEDDSIEADTLDGTDPDRQPGSLEVNGNKVRKKLMAPDISLTLDPGEDSLWSDDLDEAGEVDLEGLDTPSENSDEFEWEDDLPKPKTTEVIRKGSITEYTATEEKGDGRRWRMFRIGEQDHRVDMKAIEPYKKVISHGGYYGDGLNAIVVFAVCFMPESGQPNYRYLMDNLFKYVIGTLELLVAENYMIIYLNGATTRRKMPSLGWLRRCYQQIDRRLRKNLKSLIIVHPSWFIRTLLAVTRPFISSKFSQKIRYVFNLAELAELVPMEYVGIPECIKQVDQELNGKQEPPKSEQ | not soluble

Source: the DeepSol protein solubility set
